Results on two molecules are retold here after patent US20230227537A1 (VIB VZW, published 2023).

In test [1] the target is T1, Mouse IgG1 Fc fused SARS-CoV-2 RBD (Sino Biological) (SARS-CoV-2; mouse, UniProt P0DTC2 330-518). The test is described as follows: BLI, immobilized RBD-mFc. (In general: Biolayer interferometry detects binding as a change in optical thickness at a sensor tip.)
Test [2] addresses SARS-CoV-2 spike, full length, on cells or on pseudotyped/authentic virus (SARS-CoV-2, UniProt P0DTC2 14-1273). The test is described as follows: cell-based or functional assay.
Test [3] addresses SARS-CoV-2 RBD protein Avi-tag biotinylated (AcroBiosystems SPD-C82E9) (SARS-CoV-2, UniProt P0DTC2 330-518).
Test [4] has as its target T1, Mouse IgG1 Fc fused SARS-CoV-2 RBD ….
Test [5] deals with WT SARS-CoV-2 RBD displayed on Saccharomyces cerevisiae (SARS-CoV-2, UniProt P0DTC2 331-518).

B1: D72-55: VHH72_h1_E1D_S56A-(G4S)3-VHH72_h3_S56A-GS-hIgG1hinge_EPKSCdel-hIgG1Fc_LALAPG_Kdel (Fc fusion)
chain: DVQLVESGGGLVQPGGSLRLSCAASGRTFSEYAMGWFRQAPGKEREFVATISWSGGATYYTDSVKGRFTISRDNAKNTVYLQMNSLRPEDTAVYYCAAAGLGTVVSEWDYDYDYWGQGTLVTVSSGGGGSGGGGSGGGGSDVQLVESGGGLVQPGGSLRLSCAASGRTFSEYAMGWFRQAPGKEREFVATISWSGGATYYTDSVKGRFTISRDNAKNTVYLQMNSLRPEDTAVYYCAAAGLGTVVSEWDYDYDYWGQGTLVTVSSGSDKTHTCPPCPAPEAAGGPSVFLFPPKPKDTLMISRTPEVTCVVVDVSHEDPEVKFNWYVDGVEVHNAKTKPREEQYNSTYRVVSVLTVLHQDWLNGKEYKCKVSNKALGAPIEKTISKAKGQPREPQVYTLPPSRDELTKNQVSLTCLVKGFYPSDIAVEWESNGQPENNYKTTPPVLDSDGSFFLYSKLTVDKSRWQQGNVFSCSVMHEALHNHYTQKSLSLSPG
notes: Tetravalent; ExpiCHO
Consider B1, for which the “fold higher affinity than its bivalent counterpart” value in test [1] was over 100 fold. In test [2], the “PRNT50, authentic SARS-CoV-2” value turned out to be 0.02 µg/mL and the “fold lower PRNT50 than the parental construct” value came to 50 fold.

B2: VHH72_h1(S56A) (VHH)
VHH: EVQLVESGGGLVQPGGSLRLSCAASGRTFSEYAMGWFRQAPGKEREFVATISWSGGATYYTDSVKGRFTISRDNAKNTVYLQMNSLRPEDTAVYYCAAAGLGTVVSEWDYDYDYWGQGTLVTVSS
A word on the Kd: it is the free concentration of one partner at which half of the binding sites on the other are occupied at equilibrium, for simple one-to-one binding. A low value points to tighter binding. The koff is a measure of how fast the partners let go of each other. A word on the EC50 (read off the curve): it is the concentration needed to bring the measured effect to its halfway point. Read a low EC50 (read off the curve) as a more potent agent. Regarding B2, in test [3], the dissociation constant (Kd) came to 3.09 nM, the “fold improvement of KD against VHH72 h1” value is 3 fold and the koff stood at 0.00069 s⁻¹. In test [4], the Kd was 5.26 nM; the “fold better competition than VHH72-wt and VHH72_h1” value came out at 7 fold; the “fold improvement of KD against VHH72 h1” value is over 6 fold. In addition, the “EC50 (read off the curve)” value in test [5] was about 0.3 µg/mL.
